This passage reports stoichiometry N results from PMC3913039.

What is called stoichiometry N is the number of molecules, sites or subunits per partner or assembly.

This experiment deals with recombinant 3x-FLAG-tagged human Sec61α, wild type (human) (UniProt P61619). Kind of experiment: co-IP; Sf21 microsomes with FLAG-Sec61α and Sec61γ solubilised with 1% Deoxy BigChap, anti-FLAG immunoprecipitation, immunoblot beside canine microsomes. On the technique in general: Immunoblotting shows a protein as a band on a membrane.
UniProt P61619, sequence (P61619 whole entry): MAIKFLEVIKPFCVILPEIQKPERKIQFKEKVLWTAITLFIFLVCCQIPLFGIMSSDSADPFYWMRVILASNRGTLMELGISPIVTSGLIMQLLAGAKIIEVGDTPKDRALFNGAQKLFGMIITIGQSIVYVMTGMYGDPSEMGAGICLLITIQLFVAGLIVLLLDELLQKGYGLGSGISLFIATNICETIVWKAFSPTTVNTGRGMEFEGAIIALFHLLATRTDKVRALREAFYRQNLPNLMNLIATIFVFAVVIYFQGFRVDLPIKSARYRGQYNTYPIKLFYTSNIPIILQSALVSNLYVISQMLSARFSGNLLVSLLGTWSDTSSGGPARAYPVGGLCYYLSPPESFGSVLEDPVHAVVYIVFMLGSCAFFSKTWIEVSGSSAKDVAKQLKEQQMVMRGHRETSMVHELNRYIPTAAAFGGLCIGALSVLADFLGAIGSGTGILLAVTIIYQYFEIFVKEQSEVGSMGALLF

As for “recombinant untagged human Sec61γ (from UniProt P60059 1-68) (natural protein; other documents disagree on this pair)”, the stoichiometry N turned out to be 1.
